# Source: the supplement of paper PMC9876800
# Tested on: peptide library, one residue held at a place counted from the S/T acceptor
# Assay: relative phosphorylation of the sub-library (ratio to the mean residue at this position); human; higher = residue favoured
# Conditions: F fixed; at -2
# Method in brief: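 Human or orthologue kinase constructs, purified and recombinant, were incubated under kinase-specific conditions in 384-well plates with biotinylated degenerate peptide sub-libraries. Each sub-library fixed one residue at one position around a central Ser/Thr. Incubations lasted 90 min with peptides at 50 μM and 50 μM ATP spiked with γ-32P-ATP, after which spots on streptavidin membranes were phosphorimaged and quantified by densitometry. Relative sub-library phosphorylation is a ratio to the mean residue at that position.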
# Chain of GRK2, construct: Full length (P25098 whole entry, looked up): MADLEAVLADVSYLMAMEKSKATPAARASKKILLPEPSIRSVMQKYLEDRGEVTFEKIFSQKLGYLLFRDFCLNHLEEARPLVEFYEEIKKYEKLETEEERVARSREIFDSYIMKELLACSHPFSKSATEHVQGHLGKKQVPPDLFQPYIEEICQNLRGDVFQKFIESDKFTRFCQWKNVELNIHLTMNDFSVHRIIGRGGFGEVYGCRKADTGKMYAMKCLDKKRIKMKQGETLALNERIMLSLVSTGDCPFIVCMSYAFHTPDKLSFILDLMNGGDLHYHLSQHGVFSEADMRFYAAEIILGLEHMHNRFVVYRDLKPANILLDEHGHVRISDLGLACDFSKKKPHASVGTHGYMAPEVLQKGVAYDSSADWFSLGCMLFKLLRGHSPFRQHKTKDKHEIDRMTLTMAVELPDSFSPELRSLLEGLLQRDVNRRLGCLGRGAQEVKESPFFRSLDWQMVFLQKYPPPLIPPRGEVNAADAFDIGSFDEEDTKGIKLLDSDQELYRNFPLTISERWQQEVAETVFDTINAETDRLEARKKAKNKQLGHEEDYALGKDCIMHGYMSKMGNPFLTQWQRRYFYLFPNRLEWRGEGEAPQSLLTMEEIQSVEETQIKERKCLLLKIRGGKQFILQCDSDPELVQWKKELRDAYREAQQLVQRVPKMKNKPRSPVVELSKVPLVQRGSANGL
# Chain of NEK4, construct: Full length (P51957 whole entry, looked up): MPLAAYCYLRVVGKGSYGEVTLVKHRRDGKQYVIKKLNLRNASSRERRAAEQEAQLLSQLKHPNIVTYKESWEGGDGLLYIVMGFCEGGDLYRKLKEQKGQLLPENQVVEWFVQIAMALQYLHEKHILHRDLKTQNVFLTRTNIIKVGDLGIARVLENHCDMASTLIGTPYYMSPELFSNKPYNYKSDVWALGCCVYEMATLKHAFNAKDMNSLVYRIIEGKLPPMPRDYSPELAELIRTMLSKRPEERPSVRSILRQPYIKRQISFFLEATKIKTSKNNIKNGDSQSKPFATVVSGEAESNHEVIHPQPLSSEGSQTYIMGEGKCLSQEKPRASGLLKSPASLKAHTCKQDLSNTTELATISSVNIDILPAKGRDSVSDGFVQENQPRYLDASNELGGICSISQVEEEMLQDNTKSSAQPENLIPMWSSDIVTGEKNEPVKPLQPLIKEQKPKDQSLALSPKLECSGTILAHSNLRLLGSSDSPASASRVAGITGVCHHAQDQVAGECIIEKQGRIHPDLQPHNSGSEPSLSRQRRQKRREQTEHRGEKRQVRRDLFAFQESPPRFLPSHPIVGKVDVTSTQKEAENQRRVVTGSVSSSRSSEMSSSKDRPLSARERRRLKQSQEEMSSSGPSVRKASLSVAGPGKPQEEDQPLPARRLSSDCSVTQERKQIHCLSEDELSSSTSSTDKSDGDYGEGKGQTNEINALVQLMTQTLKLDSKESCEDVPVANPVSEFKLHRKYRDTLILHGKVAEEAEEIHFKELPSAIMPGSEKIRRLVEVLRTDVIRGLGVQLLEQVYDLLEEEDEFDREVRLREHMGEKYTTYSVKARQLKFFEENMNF
# Chain of AURKB, construct: Full length (Q96GD4 whole entry, looked up): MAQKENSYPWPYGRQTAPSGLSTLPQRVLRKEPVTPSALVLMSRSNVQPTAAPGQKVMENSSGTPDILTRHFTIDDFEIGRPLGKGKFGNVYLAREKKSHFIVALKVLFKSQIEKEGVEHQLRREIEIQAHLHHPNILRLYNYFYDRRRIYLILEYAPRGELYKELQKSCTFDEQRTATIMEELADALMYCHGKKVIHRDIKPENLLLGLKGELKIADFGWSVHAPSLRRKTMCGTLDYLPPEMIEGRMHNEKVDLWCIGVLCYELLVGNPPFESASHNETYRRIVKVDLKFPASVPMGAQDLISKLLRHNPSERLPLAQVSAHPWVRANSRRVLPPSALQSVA
# Chain of TP53RK, construct: Full length (Q96S44 whole entry, looked up): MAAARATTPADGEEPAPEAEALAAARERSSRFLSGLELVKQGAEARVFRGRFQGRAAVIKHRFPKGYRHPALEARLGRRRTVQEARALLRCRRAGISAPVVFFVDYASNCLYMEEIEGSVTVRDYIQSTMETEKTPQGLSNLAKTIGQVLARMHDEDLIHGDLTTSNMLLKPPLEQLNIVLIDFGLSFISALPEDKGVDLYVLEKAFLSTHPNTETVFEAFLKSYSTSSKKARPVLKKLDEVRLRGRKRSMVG
# Chain of GRK7, construct: Full length (Q8WTQ7 whole entry, looked up): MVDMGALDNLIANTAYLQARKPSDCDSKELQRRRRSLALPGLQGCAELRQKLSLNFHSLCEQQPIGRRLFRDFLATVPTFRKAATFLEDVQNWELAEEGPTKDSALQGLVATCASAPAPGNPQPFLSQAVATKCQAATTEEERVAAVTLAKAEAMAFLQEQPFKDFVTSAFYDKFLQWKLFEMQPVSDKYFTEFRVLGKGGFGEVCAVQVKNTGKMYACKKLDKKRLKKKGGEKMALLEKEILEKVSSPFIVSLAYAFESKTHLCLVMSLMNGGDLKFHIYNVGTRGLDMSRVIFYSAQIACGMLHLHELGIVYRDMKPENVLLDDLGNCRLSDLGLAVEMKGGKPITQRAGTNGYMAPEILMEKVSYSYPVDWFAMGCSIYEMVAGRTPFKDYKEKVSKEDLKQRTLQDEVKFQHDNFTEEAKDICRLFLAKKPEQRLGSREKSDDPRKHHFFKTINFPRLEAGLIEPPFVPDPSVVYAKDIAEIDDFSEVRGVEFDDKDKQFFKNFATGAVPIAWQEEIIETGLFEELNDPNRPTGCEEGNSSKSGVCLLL
# Chain of SGK3, construct: aa119-end (Q96BR1 119-496, looked up): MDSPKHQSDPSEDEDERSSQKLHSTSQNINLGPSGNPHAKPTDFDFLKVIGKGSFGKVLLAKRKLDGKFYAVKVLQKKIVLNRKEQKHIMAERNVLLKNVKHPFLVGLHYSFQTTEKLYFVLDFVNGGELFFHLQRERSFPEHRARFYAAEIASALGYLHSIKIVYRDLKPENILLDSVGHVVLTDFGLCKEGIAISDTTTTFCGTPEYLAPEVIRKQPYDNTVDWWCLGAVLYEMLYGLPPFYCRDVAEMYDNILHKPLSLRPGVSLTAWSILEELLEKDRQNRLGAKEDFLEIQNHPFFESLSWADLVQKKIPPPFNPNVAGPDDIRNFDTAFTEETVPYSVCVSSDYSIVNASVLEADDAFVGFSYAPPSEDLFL
# Chain of NEK11, construct: Full length (Q8NG66 whole entry, looked up): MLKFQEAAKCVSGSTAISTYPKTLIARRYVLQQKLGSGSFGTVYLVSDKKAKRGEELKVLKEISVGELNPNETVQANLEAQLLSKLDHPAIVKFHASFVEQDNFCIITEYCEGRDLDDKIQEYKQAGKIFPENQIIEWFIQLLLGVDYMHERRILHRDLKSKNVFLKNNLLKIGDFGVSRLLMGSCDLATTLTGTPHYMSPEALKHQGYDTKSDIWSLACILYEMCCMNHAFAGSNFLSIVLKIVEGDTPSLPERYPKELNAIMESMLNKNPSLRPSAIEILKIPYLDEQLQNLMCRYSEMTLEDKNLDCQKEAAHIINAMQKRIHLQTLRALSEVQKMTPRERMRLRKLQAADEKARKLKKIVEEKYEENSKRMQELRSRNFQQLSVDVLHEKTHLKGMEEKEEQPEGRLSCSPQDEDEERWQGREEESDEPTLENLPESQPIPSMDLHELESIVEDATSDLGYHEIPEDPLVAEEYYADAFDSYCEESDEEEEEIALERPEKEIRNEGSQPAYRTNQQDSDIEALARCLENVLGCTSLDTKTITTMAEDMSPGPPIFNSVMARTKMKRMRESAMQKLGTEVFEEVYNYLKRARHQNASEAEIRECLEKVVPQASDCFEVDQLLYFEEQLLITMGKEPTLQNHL
row,Substance,relative phosphorylation
1,"NEK11, construct: Full length (from UniProt Q8NG66)",1.49
2,"MKNK1, construct: Full length (D165-205) (from UniProt Q9BUB5)",0.433
3,"TP53RK, construct: Full length (from UniProt Q96S44)",0.94
4,"GRK2, construct: Full length (from UniProt P25098)",0.961
5,"NEK4, construct: Full length (from UniProt P51957)",1.16
6,"AURKB, construct: Full length (from UniProt Q96GD4)",0.247
7,"SGK3, construct: aa119-end (from UniProt Q96BR1)",0.609
8,"GRK7, construct: Full length (from UniProt Q8WTQ7)",0.624

# Same assay, conditions: F fixed; at -3
row,Substance,relative phosphorylation
1,"NEK11, construct: Full length (from UniProt Q8NG66)",1.22
2,"MKNK1, construct: Full length (D165-205) (from UniProt Q9BUB5)",0.392
3,"TP53RK, construct: Full length (from UniProt Q96S44)",1.03
4,"GRK2, construct: Full length (from UniProt P25098)",0.768
5,"NEK4, construct: Full length (from UniProt P51957)",1.64
6,"AURKB, construct: Full length (from UniProt Q96GD4)",0.633
7,"SGK3, construct: aa119-end (from UniProt Q96BR1)",0.352
8,"GRK7, construct: Full length (from UniProt Q8WTQ7)",0.474

# Same assay, conditions: F fixed; at -4
row,Substance,relative phosphorylation
1,"NEK11, construct: Full length (from UniProt Q8NG66)",1.33
2,"MKNK1, construct: Full length (D165-205) (from UniProt Q9BUB5)",0.676
3,"TP53RK, construct: Full length (from UniProt Q96S44)",0.971
4,"GRK2, construct: Full length (from UniProt P25098)",0.915
5,"NEK4, construct: Full length (from UniProt P51957)",1.14
6,"AURKB, construct: Full length (from UniProt Q96GD4)",0.724
7,"SGK3, construct: aa119-end (from UniProt Q96BR1)",0.749
8,"GRK7, construct: Full length (from UniProt Q8WTQ7)",0.516

# Same assay, conditions: F fixed; at -5
row,Substance,relative phosphorylation
1,"NEK11, construct: Full length (from UniProt Q8NG66)",1.18
2,"MKNK1, construct: Full length (D165-205) (from UniProt Q9BUB5)",0.727
3,"TP53RK, construct: Full length (from UniProt Q96S44)",0.953
4,"GRK2, construct: Full length (from UniProt P25098)",1.14
5,"NEK4, construct: Full length (from UniProt P51957)",1.21
6,"AURKB, construct: Full length (from UniProt Q96GD4)",0.867
7,"SGK3, construct: aa119-end (from UniProt Q96BR1)",0.836
8,"GRK7, construct: Full length (from UniProt Q8WTQ7)",0.621

# Same assay, conditions: G fixed; at +1
row,Substance,relative phosphorylation
1,"NEK11, construct: Full length (from UniProt Q8NG66)",0.494
2,"MKNK1, construct: Full length (D165-205) (from UniProt Q9BUB5)",0.464
3,"TP53RK, construct: Full length (from UniProt Q96S44)",0.918
4,"GRK2, construct: Full length (from UniProt P25098)",0.766
5,"NEK4, construct: Full length (from UniProt P51957)",0.921
6,"AURKB, construct: Full length (from UniProt Q96GD4)",1.11
7,"SGK3, construct: aa119-end (from UniProt Q96BR1)",0.575
8,"GRK7, construct: Full length (from UniProt Q8WTQ7)",0.823

# Same assay, conditions: G fixed; at +2
row,Substance,relative phosphorylation
1,"NEK11, construct: Full length (from UniProt Q8NG66)",0.664
2,"MKNK1, construct: Full length (D165-205) (from UniProt Q9BUB5)",0.534
3,"TP53RK, construct: Full length (from UniProt Q96S44)",0.956
4,"GRK2, construct: Full length (from UniProt P25098)",0.755
5,"NEK4, construct: Full length (from UniProt P51957)",0.795
6,"AURKB, construct: Full length (from UniProt Q96GD4)",1.59
7,"SGK3, construct: aa119-end (from UniProt Q96BR1)",0.701
8,"GRK7, construct: Full length (from UniProt Q8WTQ7)",1.15

# Same assay, conditions: G fixed; at +3
row,Substance,relative phosphorylation
1,"NEK11, construct: Full length (from UniProt Q8NG66)",0.797
2,"MKNK1, construct: Full length (D165-205) (from UniProt Q9BUB5)",1.49
3,"TP53RK, construct: Full length (from UniProt Q96S44)",1.08
4,"GRK2, construct: Full length (from UniProt P25098)",0.817
5,"NEK4, construct: Full length (from UniProt P51957)",0.91
6,"AURKB, construct: Full length (from UniProt Q96GD4)",1.3
7,"SGK3, construct: aa119-end (from UniProt Q96BR1)",1.21
8,"GRK7, construct: Full length (from UniProt Q8WTQ7)",0.924

# Same assay, conditions: G fixed; at +4
row,Substance,relative phosphorylation
1,"NEK11, construct: Full length (from UniProt Q8NG66)",0.876
2,"MKNK1, construct: Full length (D165-205) (from UniProt Q9BUB5)",0.967
3,"TP53RK, construct: Full length (from UniProt Q96S44)",0.958
4,"GRK2, construct: Full length (from UniProt P25098)",0.928
5,"NEK4, construct: Full length (from UniProt P51957)",1.16
6,"AURKB, construct: Full length (from UniProt Q96GD4)",1.06
7,"SGK3, construct: aa119-end (from UniProt Q96BR1)",1.24
8,"GRK7, construct: Full length (from UniProt Q8WTQ7)",1.1

# Same assay, conditions: G fixed; at -1
row,Substance,relative phosphorylation
1,"NEK11, construct: Full length (from UniProt Q8NG66)",1.57
2,"MKNK1, construct: Full length (D165-205) (from UniProt Q9BUB5)",1.12
3,"TP53RK, construct: Full length (from UniProt Q96S44)",1.3
4,"GRK2, construct: Full length (from UniProt P25098)",0.726
5,"NEK4, construct: Full length (from UniProt P51957)",1.25
6,"AURKB, construct: Full length (from UniProt Q96GD4)",0.553
7,"SGK3, construct: aa119-end (from UniProt Q96BR1)",1.77
8,"GRK7, construct: Full length (from UniProt Q8WTQ7)",1.7

# Same assay, conditions: G fixed; at -2
row,Substance,relative phosphorylation
1,"NEK11, construct: Full length (from UniProt Q8NG66)",1.28
2,"MKNK1, construct: Full length (D165-205) (from UniProt Q9BUB5)",0.736
3,"TP53RK, construct: Full length (from UniProt Q96S44)",1.49
4,"GRK2, construct: Full length (from UniProt P25098)",0.718
5,"NEK4, construct: Full length (from UniProt P51957)",1.16
6,"AURKB, construct: Full length (from UniProt Q96GD4)",0.381
7,"SGK3, construct: aa119-end (from UniProt Q96BR1)",0.992
8,"GRK7, construct: Full length (from UniProt Q8WTQ7)",1.13

# Same assay, conditions: G fixed; at -3
row,Substance,relative phosphorylation
1,"NEK11, construct: Full length (from UniProt Q8NG66)",1.01
2,"MKNK1, construct: Full length (D165-205) (from UniProt Q9BUB5)",1.22
3,"TP53RK, construct: Full length (from UniProt Q96S44)",1.08
4,"GRK2, construct: Full length (from UniProt P25098)",0.766
5,"NEK4, construct: Full length (from UniProt P51957)",1.2
6,"AURKB, construct: Full length (from UniProt Q96GD4)",0.954
